Source: the supplement of paper PMC7125110
± gives the standard error. For part of these data: Fewer inactive variants are shown than the library holds.

B1: glmS ribozyme (parent)
chain: AUAAAAGCGCCAGAACUACAGAAAUGUAGUUGACGAGGAGGAGGUUUAUCGAAUUUUCGGCGGAUGCCUCCAAA

Assays:
Conditions in all cases: with glucosamine-6-phosphate
glucosamine-6-phosphate [1] = variants of: B1; assay: kcat; higher = faster cleavage; RNA array
How it was run: (§1)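 Barcoded ribozyme variants were transcribed in situ on sequenced MiSeq chips by E. coli RNA polymerase. At 37 °C, a hybridised Cy3 probe tracked them while glucosamine-6-phosphate (40 μM to 10 mM) in HEPES/KCl/Mg(OAc)2 buffer flowed in and tiles were imaged over ~14 h. Per-tile medians of signals normalised to baseline and to non-cleaving reference variants were fit to one- or two-exponential decays, giving kobs. kcat and KM came from weighted Michaelis–Menten fits across concentrations.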

glucosamine-6-phosphate [2] = variants of: B1; assay: KM; higher = weaker cofactor use; RNA array
How it was run: as §1

glucosamine-6-phosphate [3] = variants of: B1; assay: self-cleavage kobs at 40 uM GlcN6P; higher = faster cleavage; RNA array
How it was run: as §1

glucosamine-6-phosphate [4] = variants of: B1; assay: self-cleavage kobs at 160 uM GlcN6P; higher = faster cleavage; RNA array
How it was run: as §1

glucosamine-6-phosphate [5] = variants of: B1; assay: self-cleavage kobs at 640 uM GlcN6P; higher = faster cleavage; RNA array
How it was run: as §1

glucosamine-6-phosphate [6] = variants of: B1; assay: self-cleavage kobs at 2500 uM GlcN6P; higher = faster cleavage; RNA array
How it was run: as §1

glucosamine-6-phosphate [7] = variants of: B1; assay: self-cleavage kobs at 10000 uM GlcN6P; higher = faster cleavage; RNA array
How it was run: as §1

Variant	kcat (glucosamine-6-phosphate [1])	KM (glucosamine-6-phosphate [2])	self-cleavage kobs at 40 uM GlcN6P (glucosamine-6-phosphate [3])	self-cleavage kobs at 160 uM GlcN6P (glucosamine-6-phosphate [4])	self-cleavage kobs at 640 uM GlcN6P (glucosamine-6-phosphate [5])	self-cleavage kobs at 2500 uM GlcN6P (glucosamine-6-phosphate [6])	self-cleavage kobs at 10000 uM GlcN6P (glucosamine-6-phosphate [7])
A14U U31C	0.00342 ± 0.00056 s⁻¹	1450 ± 340 µM	0.00012 ± 1.9e-05 s⁻¹	0.000327 ± 3.9e-05 s⁻¹	0.000956 ± 0.00011 s⁻¹	0.00229 ± 0.00027 s⁻¹	0.00303 ± 0.0006 s⁻¹
A39G G59A	0.000106 ± 2.1e-05 s⁻¹					7.4e-05 ± 1.8e-05 s⁻¹	8.4e-05 ± 1.1e-05 s⁻¹
G60U C67A C68U	< 1e-05 s⁻¹				< 1e-05 s⁻¹		< 1e-05 s⁻¹
G44U U46C	1.46e-05 ± 1.4e-06 s⁻¹	5110 ± 1200 µM					
G41C A42G	0.00017 ± 1e-05 s⁻¹	1210 ± 190 µM			6.25e-05 ± 1e-05 s⁻¹	0.000107 ± 1.5e-05 s⁻¹	0.000158 ± 1.9e-05 s⁻¹
G41C A42U	4.23e-05 ± 1.3e-06 s⁻¹	1050 ± 290 µM		< 1e-05 s⁻¹			3.82e-05 ± 6.7e-06 s⁻¹
C16A U56A	0.0016 ± 0.00026 s⁻¹	3180 ± 890 µM	2.51e-05 ± 9.6e-06 s⁻¹	9.31e-05 ± 3e-05 s⁻¹	0.000261 ± 7.2e-05 s⁻¹	0.000618 ± 0.00011 s⁻¹	0.00131 ± 0.0002 s⁻¹
A39U A53G	0.0183 ± 0.0065 s⁻¹	1410 ± 620 µM	0.000648 ± 6.7e-05 s⁻¹	0.00141 ± 0.00023 s⁻¹	0.0052 ± 0.00085 s⁻¹	0.0187 ± 0.0064 s⁻¹	0.0166 ± 0.0029 s⁻¹
A39U A53C	0.00528 ± 0.0015 s⁻¹	2890 ± 1100 µM	9.69e-05 ± 1.1e-05 s⁻¹	0.000314 ± 4.2e-05 s⁻¹	0.000759 ± 8.9e-05 s⁻¹	0.00228 ± 0.00027 s⁻¹	0.00454 ± 0.00047 s⁻¹
A36C U65G C70U	1.94e-05 ± 5.3e-06 s⁻¹						
C50G U56C	1.76e-05 ± 2.6e-06 s⁻¹						
C8U G38A	< 1e-05 s⁻¹	371 ± 120 µM	< 1e-05 s⁻¹				
G38A C71A	< 1e-05 s⁻¹						< 1e-05 s⁻¹
C50A C67U	1.84e-05 ± 4e-06 s⁻¹						
C11U U55G C70G	9.32e-05 ± 8.6e-06 s⁻¹				7.75e-05 ± 2.5e-05 s⁻¹		8.94e-05 ± 1.7e-05 s⁻¹
U55A C61U	1.43e-05 ± 1.1e-06 s⁻¹	1930 ± 520 µM					
A15U U55G	0.00423 ± 0.0019 s⁻¹		0.000109 ± 1.3e-05 s⁻¹	0.000152 ± 4.6e-05 s⁻¹	0.00134 ± 0.00029 s⁻¹	0.00204 ± 0.00063 s⁻¹	0.00356 ± 0.00054 s⁻¹
G13U C16A	0.000283 ± 1.2e-05 s⁻¹	4340 ± 370 µM			3.79e-05 ± 1.2e-05 s⁻¹	0.0001 ± 2.2e-05 s⁻¹	0.000198 ± 2.6e-05 s⁻¹
A48G C67A	7.17e-05 ± 2.1e-06 s⁻¹			< 1e-05 s⁻¹			3.47e-05 ± 1.2e-05 s⁻¹

Variant	kcat (glucosamine-6-phosphate [1])	KM (glucosamine-6-phosphate [2])	self-cleavage kobs at 40 uM GlcN6P (glucosamine-6-phosphate [3])	self-cleavage kobs at 160 uM GlcN6P (glucosamine-6-phosphate [4])	self-cleavage kobs at 640 uM GlcN6P (glucosamine-6-phosphate [5])	self-cleavage kobs at 2500 uM GlcN6P (glucosamine-6-phosphate [6])	self-cleavage kobs at 10000 uM GlcN6P (glucosamine-6-phosphate [7])
G32U A64U	< 1e-05 s⁻¹			< 1e-05 s⁻¹	< 1e-05 s⁻¹		
G44U A64G	0.000112 ± 2.4e-05 s⁻¹				9.74e-05 ± 4.6e-05 s⁻¹	5.94e-05 ± 1.4e-05 s⁻¹	9.64e-05 ± 1.3e-05 s⁻¹
A33C C50A	< 1e-05 s⁻¹						
G41A U47G	0.00145 ± 0.00012 s⁻¹	3540 ± 470 µM		6.46e-05 ± 2.1e-05 s⁻¹	0.00021 ± 4e-05 s⁻¹	0.000656 ± 0.00011 s⁻¹	0.00104 ± 0.00017 s⁻¹
A6C G59A	< 1e-05 s⁻¹		< 1e-05 s⁻¹				< 1e-05 s⁻¹
A12G C58G C67A	0.000115 ± 2.4e-05 s⁻¹				0.000136 ± 3.6e-05 s⁻¹	9.94e-05 ± 2.1e-05 s⁻¹	
A6C C70U	0.000107 ± 2.6e-06 s⁻¹	1350 ± 110 µM			3.3e-05 ± 6.9e-06 s⁻¹	7.26e-05 ± 9.6e-06 s⁻¹	9.39e-05 ± 7.1e-06 s⁻¹
A6C C70A	1.39e-05 ± 2.5e-06 s⁻¹						
U45A U47A	0.0227 ± 0.0082 s⁻¹		0.00126 ± 0.0002 s⁻¹	0.00413 ± 0.001 s⁻¹	0.00902 ± 0.0014 s⁻¹	0.0263 ± 0.0064 s⁻¹	
U31G A48C	0.000112 ± 1.1e-05 s⁻¹	2550 ± 670 µM				5.79e-05 ± 1.5e-05 s⁻¹	8.83e-05 ± 1.7e-05 s⁻¹
U55A C70G	0.000118 ± 1.5e-05 s⁻¹		3.74e-05 ± 7.5e-06 s⁻¹	0.000102 ± 1.2e-05 s⁻¹	0.000148 ± 1.6e-05 s⁻¹	0.000117 ± 1.2e-05 s⁻¹	0.000101 ± 9.9e-06 s⁻¹
A12U U49G	0.00213 ± 0.00037 s⁻¹	2950 ± 780 µM	3.38e-05 ± 7.4e-06 s⁻¹	9.35e-05 ± 1.5e-05 s⁻¹	0.000495 ± 7.3e-05 s⁻¹	0.000912 ± 0.00012 s⁻¹	0.00167 ± 0.00018 s⁻¹
U56C A64G	0.000167 ± 1.1e-05 s⁻¹	2690 ± 560 µM				8.52e-05 ± 2.8e-05 s⁻¹	0.000131 ± 2e-05 s⁻¹
A39U U56C	0.00176 ± 0.00058 s⁻¹	2130 ± 950 µM	3.9e-05 ± 8.2e-06 s⁻¹	0.000149 ± 2.8e-05 s⁻¹	0.000351 ± 5.4e-05 s⁻¹	0.000804 ± 0.00019 s⁻¹	0.00192 ± 0.0004 s⁻¹
C34A U56G	< 1e-05 s⁻¹	31 ± 12 µM	< 1e-05 s⁻¹	< 1e-05 s⁻¹	< 1e-05 s⁻¹	< 1e-05 s⁻¹	
C67G C71G	1.33e-05 ± 4.1e-06 s⁻¹						
A53U U57C	0.000173 ± 5.9e-06 s⁻¹	1360 ± 210 µM				0.000115 ± 2.1e-05 s⁻¹	0.000151 ± 1.8e-05 s⁻¹
U30G U56C	0.00111 ± 0.00035 s⁻¹			7.46e-05 ± 1.8e-05 s⁻¹	0.000359 ± 5.7e-05 s⁻¹	0.000454 ± 8.9e-05 s⁻¹	0.00109 ± 0.00017 s⁻¹
